Reference: the DeepSol protein solubility set

Experiment: soluble on expression in E. coli; label from the status in PepcDB or PDB records

Sequence | soluble on expression in E. coli
MKPHFRNTVERMYRDTFSYNFYNRPILSRRNTVWLCYEVKTKGPSRPPLDAKIFRGQVYSELKYHPEMRFFHWFSKWRKLHRDQEYEVTWYISWSPCTKCTRDMATFLAEDPKVTLTIFVARLYYFWDPDYQEALRSLCQKRDGPRATMKIMNYDEFQHCWSKFVYSQRELFEPWNNLPKYYILLHIMLGEILRHSMDPPTFTFNFNNEPWVRGRHETYLCYEVERMHNDTWVLLNQRRGFLCNQAPHKHGFLEGRHAELCFLDVIPFWKLDLDQDYRVTCFTSWSPCFSCAQEMAKFISKNKHVSLCIFTARIYDDQGRCQEGLRTLAEAGAKISIMTYSEFKHCWDTFVDHQGCPFQPWDGLDEHSQDLSGRLRAILQNQEN | soluble
MKPLSSQLNMKINDFYLPLLPVIGTGRLYITSKGHACHAYFREVSGHGIRFTLTYSGYEGRFWISEEQFIQWCQELFPYSESRLIPEDTIKLMILWVMQTALPEGDVSVDDVQFTMLNKDIYPVIENNNGENRLNVIILETTVQSLQYLINDNWQLVPHSNALFFDGYIVPGWTDYPVTELRVGDSLRLYHVDDSQERRCWIVINTPLATVNLSDNNLSVTDVLAADLLSALSNETVMNRIYCAIGTVHIDIHMLRNVKKDDIINSDGYHLFGGCQLIRNNTTIAYGSIVKINEDFYFTVSIVCD | soluble
MKPSIFRQALCVSAAAVLTTVSHSLTTPTAHAQGGTPGLMEFRWDSDRNYRKLYYFQTSSIENDRSEWYLHLRAKDRKTSIMKLTVTVPDYFDAKLRPERMTLCRTSSGSMTKRTRCLEEVPATIEVNKTQTAIEVYPDTPVPVEGDYSLRIKLFNPQGKRMYQLNALIQAPGDVPMSGYVGSWLIDMD | not soluble
MKPVKVGICGLGTVGGGTFNVLERNAEEIARRAGRGIEVAQIAARRPNPKCDTGATPITADIFDVACNPEIDVVVELIGGYTLAHELVLKAIENGKHVVTANKALIAVHGNEIFAKAREKGVIVAFEAAVAGGIPVIKAIREGLSANRINWLAGIINGTGNFILSEMREKGRTFPDVLAEAQALGYAEADPTFDVEGIDAAHKLTILASIAFGIPLQFDKAYTEGISKLTSADVNYADALGYRIKHLGVARRTESGFELRVHPTLIPSDRLIANVNGVMNAVMVNGDAVGSTLYYGAGAGMEPTASSVVADLVDVVRAMTSDPENRVPHLAFQPDALSDHPILPIEACESAYYLRIQAKDHPGVLAQVATILSERGINIESIMQKEAEEQDGLVPMILVTHRVIEQRINDAIAALEALEGVSGPVVRIRVEQL | soluble
MKQEIIIAGFGGQGVLSMGKILAYSGLMEDKEVTWMPAYGPEQRGGTANVTVIVSDERISSPILSQYDTAIILNQPSLEKFEGKIKPGGILIYDGYGIIEPPTRKDIQIYRIDAMDAANEKGMAKTFNMIVLGGLLKLRPVVSIESVIKALRKTLPERHHHLIPMNEEAIRIGMEIIK | not soluble
MKQFLVALTILTSSLFSFASALDIIDESFLALKEFLDQPDSGAFLSLLERARGIFIVPKYLKLGWVLGGQYGQGVLLKRDPETNTWYGPLFVKMYGLSFGPQIGFQSVSLIAVIMENVDAFAEGNITLGGSLSVAAGPLGRRLSADYNLDASVYSYSIARGFYAGFSLEGAKIDVDLDLTREYYNVYRIEPEEILRREVSGRAEKIVNLLNEKLTEEAAALEHHHHHH | not soluble
MKQHILVLEDANQRRTIILDEQQYSIGRHSGTSIQIHSRQASRHHATLMRKTNSKTNEECFWIIDGDLEGNKSQNGVFVNGEKRLIHELKNGDLINFGCSINALEHHHHHH | not soluble
MKQIAFIGLGHMGAPMATNLLKAGYLLNVFDLVQSAVDGLVAAGASAARSARDAVQGADVVISMLPASQHVEGLYLDDDGLLAHIAPGTLVLECSTIAPTSARKIHAAARERGLAMLDAPVSGGTAGAAAGTLTFMVGGDAEALEKARPLFEAMGRNIFHAGPDGAGQVAKVCNNQLLAVLMIGTAEAMALGVANGLEAKVLAEIMRRSSGGNWALEVYNPWPGVMENAPASRDYSGGFMAQLMAKDLGLAQEAAQASASSTPMGSLALSLYRLLLKQGYAERDFSVVQKLFDPTQGQ | soluble
MKQMNVVLIGGGTGLSVLARGLREFPIDITAIVTVADNGGSTGKIRDVMDIPAPGDIRNVIAALSDSESILTQLFQYRFGENQVDGHSLGNLVIAGMTNITNDFGHAIKELSKVLNIKGQVIPSTNASVQLNAVMEDGEIVHGETNIPKTHKKIDRVFLEPSDVEPMNEAIEALEQADLIVLGPGSLYTSVISNLCVKGISEALLRTSAPKLYVSNVMTQPGETDNYDVKEHIDALTRQVGEPFIDFVICSSESYSKDVLQRYEEKNSKPVAVHKEQLKDSGIRVLTASNLVEISNEHYVRHNTKVLSKMIYELALELTSTIRFTPSDKKKMAGDPLEHHHHHH | soluble
MKQRGGFLGGQLLIAMPGMNDKRFIRSVIYICAHSDAGAMGIILNQLHHIGFPELLLHLGVINSGQKKDLSEPIKKFPVRYGGPVDPSRGFVLHSDDYACEETVLVADKICFTATIDILKAISCEKGPQHALIALGYAGWKAGQLEAEISTNGWLISSTSPSFLFESDLNRKYDESLIRMGINPTYLVSEMGHA | not soluble
MKQTTINHSVELVGIGLHKGVPVKLVLEPLGENQGIVFYRSDLGVNLPLKPENIVDTKMATVLGKDNARISTIEHLLSAVHAYGIDNLKISVDNEEIPIMDGSALTYCMLLDEAGIKELDAPKKVMEIKQAVEIRESDKFVKIEPDSQLSLNFTIDFNHPVIAKQAHHFVFSKTAYKEQVAKARTFGFLQEVNYLRSIGLAKGGSLNNCIVLDENSILNKEGLRCEKEFVCHKILDAMGDLMVLGMPVMGKYTSFSGSHKLNSMLVKAILADAKNYEVLIAADPAKEFALQKAFALEHHHHHH | not soluble
MKRAPFLCKQSPDRTLEVVILAGSLAWETSRVWRKDPDREDDVPPMVLGPNELADLSNLTIIRPDTLYVRVLRTGDISEEDLLKIAVKLAHAGVQMARLMSPDGELLENWTGQLERLRQERPSDILPDHFRLDEEALWFDKLTERRDGESDVQPQRICSPLRVTAITCDSHDGSYGRLLEWHTTTGQLRRWAMPMAMLSGNGEELRRILLENGLTNISTRPALRSLLCEYISRSLPGRRVTCVEKTGWHNGVYVLPDEVIGPDGDNVILQGSHYLTGGFAQAGTLAEWQEQVAALCAGNSRLVFAVCCALAAPLLRLTGTGGGGFHLRGESTDGKTTVMKVAASVCGGTDYWHSWRATGNALEGIASRHNDALLPLDELREVDPREAGMIAYMLANGQGKGRARTDGEVRNRRHWTLLLFSTGELSLAEHTERAGERIYAGMDVRMVQIPSDTGQHGAFEQLHGFASGQQFADTLCDRVARFHGTAFRAWLAFLTHDQDASTTLARELLRRYQNALMPDNAGNQVQRIVARFALLAAAGEIATLHGITGWQKGTAYEAVQICLHAWLNERGHIANQEDEGVLAQIKRFITAHQYSRFASWDGPDRPLNMAGFRRVEKDPLTGEEHTLFFILPEGWREICRGFSPARAARLCQEAECLQPGSDGKYQSQVRLPEIGKTRVYRLTSRILSILEHHHHHH | soluble
MKRGKRLILPLLGTLILTSLFSCGVDRWPEYYPETGRDIWIDSVMRQEYLWYRDMPSPAAPDYFQKPEAFLKKAVASMDNGFSKIDSLLDEPIPSYGFDYTLYKVLDNDTAYNALISYVVPGSPAEEAGLQRGHWIMMMNGDYITKKVESELLQGSTRQLQIGVYKEVVGEDGEVTGGVVPIGETTMPASRSLVDKPVHRFEIIPWNGKKVGYLMYNEFKAGPTTDSQAYNDDLRRAFRDFQTGGVNEFVLDLRYNTGGSLDCAQLLCTMLAPADKMNQLLALLRYSDKRVEANQDLTFNPELIQSGANLNLSTVYVLTTNATRGAAEMVINCLNPYMKVVLIGTKTAGEYVATKPFVHPTDRFILNLVVCNVYNAEEKSDYATGFKPTYEYNEDSYLSTYLPFGNTNETLLNAALKIMSGITDK | not soluble
MKRILVVFLMLAIILAGCSNKGEKYQKDIDKVYKEQNQMNKIASKVQNTIKTDIKQEDSNTHVYKDGKVIVIGIQLYKDREKMYYFAYEIKDGKAEINREIDPIKYMKDHKADYEDENVEVEKDMAGDPLEHHHHHH | not soluble
MKRKVQVKNITIGEGRPKICVPIIGKNKKDIIKEAKELKDACLDIIEWRVDFFENVENIKEVKEVLYELRSYIHDIPLLFTFRSVVEGGEKLISRDYYTTLNKEISNTGLVDLIDVELFMGDEVIDEVVNFAHKKEVKVIISNHDFNKTPKKEEIVSRLCRMQELGADLPKIAVMPQNEKDVLVLLEATNEMFKIYADRPIITMSMSGMGVISRLCGEIFGSALTFGAAKSVSAPGQISFKELNSVLNLLHKSIN | not soluble
MKRKVSVYDSSKDKTLGQVVKGESPIWIRVAMAILRVWFFIYDCLNYLPYQLFNSPTEKLRKSERVKANWVDDRDGPIRNIQGHASETFPGKDTVDKVWRKCVELYDESPCLGTRQLIEVHEDKQPGGRVFEKWHLGEYVWQSYKEVETQVARLAAGIKDLAHEEQNPKVVIFAETRADWLITALACFRANVTIVTVYATLGEDAIAHAIGETEATILVTSSELLPKIVTLGKKCPTLKTLIYFAPVDQKAPAPELAPFRDQFKHVLSLSGLLTRNQEQVKESTAVKSDIALIMYTSGTTGQPKGVILLHQNVVAALLGQGDGVGIICNADTYIGYLPLAHILELDAELTCLTKGAKVGYSSPLTLHDRASKIQKGTHGDCHALRPTLMAAVPAIMDRIFKAVSEEVAASPRFMQELFKLNYERKRSRYLEGYCSPFLDRIVFKKIRRLLGGKLRGVLSGGAPLNAETQRFMNICMCCPVVQGYGLTETCGAACVADINDLSTGTVGPPVRCSDIALREWSEGGYSPFNDPPQGEILISGENISPGYYKQPEKTAEDFITYKGKVYFATGDIGQKRDDGSLLIIDRKKDLVKLQHGEYVSLAKVECALLNCPIVDNICVYGSGMEDSVVALVVPNQKHLEKIAEAEGVSTSEMKTMCEDKKVIAAYKKQLEEHAKKSKLSRSEIPAAIHLCPEIWTPDTGLLTEALKLKRKPIQMAYQKTLDDLYKQLKKN | not soluble
MKRMLASLLGTAIALGSGLALAAEADLQALEQAARKEGQVNSVGMPDSWANWKDTWKDLESKYGLKHMDTDMSSAQELAKFKAEKDNASADIGDVGAAFGPIAVQQGVSQPYKPSTWEQIPAWAKDQDGHWALAYTGTIAFIVNKQLVKDVPHSWADLLQGKYKVTIGDVSAAAQAVNGVLAAAIANGGDEKNIKPGLEFFGKIAKQGRLSLTNPVIATLEKGEVEVGIVWDFNGLSYRQQIDPERFEVLIPSDGSVISGYTTIINKYAKHPNAAKLAREYIFSDAGQINLAKGNARPIRAESLTLPDDVKAQLLPNEQYAKAQPIKDAKAWEETSKRLPRQWQEAVIINMQ | not soluble
MKRSHLENALNYALENSETAYNEMFLECDKQFILESWLNDFDLTKDYNETMHLVFSIKDKPDEETMQGLLHSTWESLKIRLPEYKFALVPHAHQDHAHIHCFINKTNQLTRRRLRFKGHEDCKEFFNELRSEFAYRLNDHLLSEEYLYVNEPKLKELDNIKQQLQDLEKEEKALEQIKSPQDEWDLNKALQSEYLQELKYKNKAKALDIQNNHSTPLKQKISEFKIALFNHKDTSDDEKEQLDIDRIDKRKPVSEHLKNTNKHELYELLGFYQKELDKKQNHSAFKNFAILNGLDRDFERETNGYSVLKKKEMLLNKLEHLDKRLLDKNSHLLLAQ | not soluble
MKRVFVFQDFKSQKFWSIDVRGTDVIVNYGKLGTDGQTQVKNFSSAGEAEKAAGKLIAEKTKKGYVETLEEVAKEMKVEAKKYALSYDEAEEGVNLMDKILKDKKLPSLKQITIGCWGYEGEDCSDIADGIVENKEKFAHFEGLFWGDIDFEEQEISWIEQVDLSPVLDAMPLLNNLKIKGTNNLSIGKKPRPNLKSLEIISGGLPDSVVEDILGSDLPNLEKLVLYVGVEDYGFDGDMNVFRPLFSKDRFPNLKWLGIVDAEEQNVVVEMFLESDILPQLETMDISAGVLTDEGARLLLDHVDKIKHLKFINMKYNYLSDEMKKELQKSLPMKIDVSDSQEYDDDYSYPMITELEHHHHHH | soluble
